In test [1] the test system is E. coli ATCC 25922. Description: Complement-dependent cytotoxicity (CDC) assay. The test is classed as cell-based, Escherichia coli. The conditions noted are these: 0.2 uM; 10% normal human serum; 90 minutes. As for the experimental part: Gram-negative bacteria were cultured overnight in Luria-Bertani (LB) (BD Difco™ Cat. 244620) at 37° C. under constant agitation. The next day, bacteria were grown to log phase until the OD600 reached 0.4 (˜10^8 CFU/mL). Bacteria were washed in DPBS pH 7.4 (Gibco 10010-023) resuspended in RPMI 1640 (Gibco 11-835-055) at 10^6 CFU/mL and […] was added to the wells of a 96-well, TC-treated, polystyrene plate (Fisher 08-772-2C).
The plates were incubated at 37° C. for 90 minutes. At the end of the assay, wells were serially diluted in sterile water and remaining bacteria were cultured overnight at 37° C. on agar plates. Colonies were counted the next day and CFU/mL and % survival normalized to RPMI control was determined using the following equations: CFU/mL=(colonies*dilution factor)/volume and […] normalized to RPMI=([CFU/mL of test condition]/[CFU/mL of molecule in RPMI])*100.

For test [2], the system named is Escherichia coli ATCC 25922. The test can be described thus: MIC assay (broth microdilution), Ec 25922. The test is classed as cell-based. Particulars: assay media RPMI A. As for the experimental part:
(§1) Bacterial strains were stored as glycerol stocks at −80° C. prior to culturing on cation-adjusted Mueller-Hinton agar (MHA; BD cat. no. 211438) at 37° C. Antibacterial activity was assessed against a panel consisting of Escherichia coli, Acinetobacter baumannii, Pseudomonas aeruginosa, and Klebsiella pneumoniae strains (see Table 2).
(§2) Briefly, stock solutions of all antibacterial agents were prepared fresh in appropriate solvents (i.e. PBS, pH 7.4, DMSO, DI, etc.). Stock concentrations were made at 50× the highest final assay concentration and serially diluted 2-fold, 8 or 12 times in a 96-well PCR plate (VWR cat. no. 83007-374). Bacterial cell suspensions generated from MHA plate cultures were prepared in 0.85% saline and adjusted to ˜0.1 OD600 nm. […] Dorschner R A et al., The mammalian ionic environment dictates microbial susceptibility to antimicrobial defense peptides. FASEB J. 20(1):35-42 (2017). Ninety-eight microliters of each cell suspension in MHB were added to test wells in a 96-well assay plate (Costar cat. no. 3370). A Beckman Multimek 96 liquid handling robot was used to dispense 2 μL of each 50× stock compound into the plate containing 98 μL of each strain in MHB (2% final solvent concentration). E. coli strains BW25113 and ATCC 25922 were run in the presence and absence of 50% heat-inactivated fetal bovine serum (FBS; Sigma, cat. no. F4135-100 mL). Plates were mixed by shaking then incubated at 37° C. overnight (16-20 h).

Test [3] relates to Escherichia coli BW25113. The test can be described thus: MIC assay (broth microdilution), Ec BW. It is filed as cell-based. Particulars: assay media RPMI A. As for the experimental part: as §1, §2
The subject of test [4] is Pseudomonas aeruginosa PAO1. Description: MIC assay (broth microdilution), Pa PAO1. The conditions noted are these: assay media RPMI A. It is filed as cell-based. As for the experimental part:
as §1
(§3) Briefly, stock solutions of all antibacterial agents were prepared fresh in appropriate solvents (i.e. PBS, pH 7.4, DMSO, DI, etc.). Stock concentrations were made at 50× the highest final assay concentration and serially diluted 2-fold, 8 or 12 times in a 96-well PCR plate (VWR cat. no. 83007-374). Bacterial cell suspensions generated from MHA plate cultures were prepared in 0.85% saline and adjusted to ˜0.1 OD600 nm. Next, cell suspensions were diluted 1:200 in RPMI containing 5% Luria Broth (LB) to improve bacterial growth (BD Difco, cat. no. 244620) to a concentration of ˜5×10^5 CFU (colony-forming units)/mL. […] Later, conjugates 16 and 17, and 20-25 were evaluated in RPMI 1640 medium (+) L-glutamine, (+) sodium bicarbonate, pH 7.4 (“RPMI B”; Gibco, cat. no. 11875-085) as has been described as a more physiologically-relevant media for susceptibility testing of antibacterial compounds. Dorschner R A et al., The mammalian ionic environment dictates microbial susceptibility to antimicrobial defense peptides. FASEB J. 20(1):35-42 (2017). Ninety-eight microliters of each cell suspension in MHB were added to test wells in a 96-well assay plate (Costar cat. no. 3370). A Beckman Multimek 96 liquid handling robot was used to dispense 2 μL of each 50× stock compound into the plate containing 98 μL of each strain in MHB (2% final solvent concentration). E. coli strains BW25113 and ATCC 25922 were run in the presence and absence of 50% heat-inactivated fetal bovine serum (FBS; Sigma, cat. no. F4135-100 mL). Plates were mixed by shaking then incubated at 37° C. overnight (16-20 h).
On the technique in general: In broth dilution the organism is exposed to a series of concentrations in liquid medium.

Test [5] has as its system Escherichia coli BW25113 4X-12 (COL-R). Description: MIC assay (broth microdilution), Ec BW 4X-12 (COL-R). The test is classed as cell-based. Particulars: assay media RPMI A. As for the experimental part: as §1, §3
Test [6] has as its system Acinetobacter baumannii ABS075-UW. The test can be described thus: MIC assay (broth microdilution), Ab ABS075. It is filed as cell-based. The conditions noted are these: assay media RPMI A. As for the experimental part:
as §1, §2

For test [7], the target named is T1, recombinant mouse FcRn (Mus musculus, UniProt Q61559).
T1 construct: purchased R&D 6775-FC-050
T1 sequence (Q61559 22-297 limits assumed): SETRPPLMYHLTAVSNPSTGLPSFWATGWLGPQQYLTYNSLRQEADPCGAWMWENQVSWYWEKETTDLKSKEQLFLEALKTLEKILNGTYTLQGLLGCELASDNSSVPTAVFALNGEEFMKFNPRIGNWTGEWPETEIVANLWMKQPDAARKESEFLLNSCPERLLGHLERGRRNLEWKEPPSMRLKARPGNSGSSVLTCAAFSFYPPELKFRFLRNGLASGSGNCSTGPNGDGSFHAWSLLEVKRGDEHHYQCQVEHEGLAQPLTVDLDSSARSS
T1 sequence (P01887 21-119 partner): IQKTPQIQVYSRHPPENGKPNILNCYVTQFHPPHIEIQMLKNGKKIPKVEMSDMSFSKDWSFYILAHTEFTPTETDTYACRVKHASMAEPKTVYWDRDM
The test can be described thus: Binding of conjugates to FcRn (ELISA), mouse. Particulars: pH 6.25; 20 μg/mL starting concentration, 2-fold diluted. As for the experimental part:
96-well ELISA plates (Fisher, Cat. No. 12-565-136) were coated with 0.25 μg/well of recombinant mouse FcRn (R&D, Cat. No. 6775-FC-050) or recombinant human FcRn (R&D, Cat. No. 8639-FC-050) in carbonate-bicarbonate buffer (Sigma, Cat. No. C34041) at pH 6.25 overnight at 37° C. A pH of 6.25 was maintained during the complete experiment. Blocking was carried out with 5% skim milk in PBS with 0.05% Tween 20. Purified conjugates were added at 20 μg/mL starting concentration and serially 2-fold diluted in blocking buffer. For detection, HRP-labeled secondary anti-mouse IgG-HRP (GE Healthcare, Cat. No. NA931V) or anti-human IgG-HRP (GE Healthcare, Cat. No. NA933V) was used to detect the bound conjugates. Absorbance was measured at 450 nm with a 96-well microplate reader and data were analyzed using GraphPad Prism software, FIGS. 33A-33F.
(In general: An ELISA detects its analyte on a solid surface through an enzyme-linked reagent.)

In test [8] the test system is Escherichia coli ATCC BAA-2469. Description: MIC assay (broth microdilution), Ec 2469. The test is classed as cell-based. Particulars: assay media RPMI A. As for the experimental part:
as §1, §2

In test [9] the test system is Escherichia coli BW25113 + pUC18-mcr-1. The test can be described thus: MIC assay (broth microdilution), Ec BW (mcr-1). It is filed as cell-based. The conditions noted are these: assay media RPMI A.
Text: An mcr-1 expression plasmid was constructed (GenScript; Piscataway, N.J.) using the pUC18 high copy number plasmid (Yanisch-Perron, et al., 1985). A 1649-bp fragment was synthesized containing, in order from 5′ to 3′: EcoR1 restriction site (5′-GAATTC-3′), a ribosomal binding site (5′-AGGAGG-3′), a 5-bp native start codon upstream sequence (5′-TTCTC-3′) from the mcr-1-bearing plasmid pHNSHP45 (Liu, Y Y, et al., 2015; GenBank Accession #KP347127), the 1626-bp mcr-1 open reading frame with stop codon (“orf00073” of GenBank Accession #KP347127), and finally an Xba1 restriction site sequence (5′-TCTAGA-3′). […] The pUC18-mcr-1 plasmid was transformed into chemically-competent E. coli BW25113 (Coli Genetic Stock Center #7636) as described previously (Chung, et al., PNAS. 1989), recovered for 1 h shaking at 37° C. in Super Optimal broth with Catabolite repression (SOC) media and then aliquots were plated on Luria-Bertani (LB) media containing 100 μg/mL of carbenicillin. Putative transformant colonies were then verified in MIC assays.
as §1
Briefly, stock solutions of all antibacterial agents were prepared fresh in appropriate solvents (i.e. PBS, pH 7.4, DMSO, DI, etc.). Stock concentrations were made at 50× the highest final assay concentration and serially diluted 2-fold, 8 or 12 times in a 96-well PCR plate (VWR cat. no. 83007-374). Bacterial cell suspensions generated from MHA plate cultures were prepared in 0.85% saline and adjusted to ˜0.1 OD600 nm. […] Later, conjugates 16 and 17, and 20-25 were evaluated in RPMI 1640 medium (+) L-glutamine, (+) sodium bicarbonate, pH 7.4 (“RPMI B”; Gibco, cat. no. 11875-085) as has been described as a more physiologically-relevant media for susceptibility testing of antibacterial compounds. […]

Test [10] has as its system Acinetobacter baumannii ATCC 19606. Description: MIC assay (broth microdilution), Ab 19606. It is filed as cell-based. The conditions noted are these: assay media RPMI A. As for the experimental part: as §1, §2

B1: control molecule: "unconjugated control Fc molecule (m-IgG2a type; SEQ ID NO: 2)" (protein, listed as Mus musculus)
chain: PRGPTIKPCPPCKCPAPNLLGGPSVFIFPPKIKDVLMISLSPIVTCVVVDVSEDDPDVQISWFVNNVEVHTAQTQTHREDYNSTLRVVSALPIQHQDWMSGKEFKCKVNNKDLPAPIERTISKPKGSVRAPQVYVLPPPEEEMTKKQVTLTCMVTDFMPEDIYVEWTNNGKTELNYKNTEPVLDSDGSYFMYSKLRVEKKNWVERNSYSCSVVHEGLHNHHTTKSFSRTPGK
As for B1, the “antibacterial activity in the presence of 10% complement active NHS” value in [1] is listed as “no antibacterial activity”.

B2: Conjugate 15 (conjugate)
chain: PRGPTIKPCPPCKCPAPNLLGGPSVFIFPPKIKDVLMISLSPIVTCVVVDVSEDDPDVQISWFVNNVEVHTAQTQTHREDYNSTLRVVSALPIQHQDWMSGKEFKCKVNNKDLPAPIERTISKPKGSVRAPQVYVLPPPEEEMTKKQVTLTCMVTDFMPEDIYVEWTNNGKTELNYKNTEPVLDSDGSYFMYSKLRVEKKNWVERNSYSCSVVHEGLHNHHTTKSFSRTPGKHHHHHH
modifications: cyclised or stapled
Turning to B2, the “MIC, Ec 25922” value in test [2] is more than 128 µg/mL. Moreover, in [2] (50% heat-inactivated FBS), the “MIC, Ec 25922 + FBS” value is more than 128 µg/mL. Moreover, the “MIC, Ec BW” value in [3] was more than 128 µg/mL. For the same molecule, the “MIC, Ec BW + FBS” value in [3] (50% heat-inactivated FBS) was more than 128 µg/mL. In test [4], the “MIC Pa PAO1” value stood at 16 µg/mL. Besides, the “MIC, Ec BW 4X-12 (COL-R)” value in test [5] is more than 128 µg/mL. Also, the “MIC Ab AB5075” value in test [6] is more than 128 µg/mL. The “binding to mouse FcRn (ELISA)” value in test [7] is “does not interfere with FcRn interaction”. For the same molecule, the “MIC, Ec 2469” value in [8] was more than 128 µg/mL. Besides, the “MIC, Ec BW (mcr-1)” value in test [9] is more than 128 µg/mL. The “MIC Ab 19606” value in test [10] was more than 128 µg/mL.

(Values after patent US20230190950A1, “COMPOSITIONS AND METHODS FOR THE TREATMENT OF BACTERIAL INFECTIONS” (Cidara Therapeutics, Inc., priority 2017, published 2023).)
